Earlier results in US20130251731A1, “Tau Acetylation in the Pathogenesis of Alzheimers Disease and Other Related Tauopathies” (THE TRUSTEES OF THE UNIVERSITY OF PENNSYLVANIA, priority 2012, published 2013).
Where two headings read alike, the source gives them in different places.

Test system: histones and microtubules

B1: αTAT-1: cytoplasmic α-tubulin acetyltransferase (protein, UniProt Q5SQI0 1-421, looked up)
Alpha-tubulin …: MEFPFDVDALFPERITVLDQHLRPPARRPGTTTPARVDLQQQIMTIIDELGKASAKAQNLSAPITSASRMQSNRHVVYILKDSSARPAGKGAIIGFIKVGYKKLFVLDDREAHNEVEPLCILDFYIHESVQRHGHGRELFQYMLQKERVEPHQLAIDRPSQKLLKFLNKHYNLETTVPQVNNFVIFEGFFAHQHRPPAPSLRATRHSRAAAVDPTPAAPARKLPPKRAEGDIKPYSSSDREFLKVAVEPPWPLNRAPRRATPPAHPPPRSSSLGNSPERGPLRPFVPEQELLRSLRLCPPHPTARLLLAADPGGSPAQRRRTRGTPPGLVAQSCCYSRHGGVNSSSPNTGNQDSKQGEQETKNRSASEEQALSQDGSGEKPMHTAPPQAPAPPAQSWTVGGDILNARFIRNLQERRSTRPW
**Q.** With B1 as the molecule, how does the Kcat (Shida et al., 2010) read?
**A.** 0.000617 s⁻¹

**Q.** What about the Kcat (substrate as listed (H4-21, H3p19, H3, microtubules)) of the same molecule?
**A.** 0.000617 s⁻¹

**Q.** And the Km (substrate as listed (H4-21, H3p19, H3, microtubules), read-out: Km [protein])?
**A.** 1.6 µM
